# Measurements taken from US20160168251A1 (MorphoSys, published 2016).
# T1: human NPRA on HEK293 cells, without added ligand (human, UniProt P16066 33-1061)
# T1 construct: a signal peptide is not delimited; also called HEK NPRA cells; HEK hNPRA cells
# T1 sequence: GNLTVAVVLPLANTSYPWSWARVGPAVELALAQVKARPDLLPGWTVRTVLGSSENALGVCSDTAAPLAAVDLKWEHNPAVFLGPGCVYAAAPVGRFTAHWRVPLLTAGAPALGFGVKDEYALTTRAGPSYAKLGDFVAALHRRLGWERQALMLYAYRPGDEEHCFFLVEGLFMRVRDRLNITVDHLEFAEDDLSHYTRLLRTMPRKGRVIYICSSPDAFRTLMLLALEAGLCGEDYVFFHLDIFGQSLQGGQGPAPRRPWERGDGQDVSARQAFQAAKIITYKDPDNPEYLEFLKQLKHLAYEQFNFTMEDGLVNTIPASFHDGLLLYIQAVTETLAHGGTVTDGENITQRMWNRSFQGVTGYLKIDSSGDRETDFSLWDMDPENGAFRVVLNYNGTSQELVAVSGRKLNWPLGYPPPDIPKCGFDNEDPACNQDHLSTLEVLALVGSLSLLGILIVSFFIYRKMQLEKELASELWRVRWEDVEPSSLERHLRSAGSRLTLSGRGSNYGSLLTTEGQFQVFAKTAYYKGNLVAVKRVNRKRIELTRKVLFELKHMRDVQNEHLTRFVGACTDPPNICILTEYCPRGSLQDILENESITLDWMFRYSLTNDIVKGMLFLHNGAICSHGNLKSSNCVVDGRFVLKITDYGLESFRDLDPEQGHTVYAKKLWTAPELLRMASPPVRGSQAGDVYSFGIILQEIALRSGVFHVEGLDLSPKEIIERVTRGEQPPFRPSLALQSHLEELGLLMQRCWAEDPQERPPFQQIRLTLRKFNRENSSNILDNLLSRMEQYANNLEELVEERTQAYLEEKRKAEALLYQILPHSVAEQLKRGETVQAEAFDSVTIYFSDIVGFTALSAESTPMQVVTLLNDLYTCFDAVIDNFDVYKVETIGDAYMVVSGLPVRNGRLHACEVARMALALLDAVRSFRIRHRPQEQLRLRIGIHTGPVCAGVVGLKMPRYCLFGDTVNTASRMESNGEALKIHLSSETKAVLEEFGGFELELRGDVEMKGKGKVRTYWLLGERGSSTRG
# T2: human NPRC on HEK293 cells, without added ligand (human, UniProt P17342 27-541)
# T2 construct: whole, on cells; also called HEK NPRC cells; natriuretic peptide receptor C
# T2 sequence (looked up): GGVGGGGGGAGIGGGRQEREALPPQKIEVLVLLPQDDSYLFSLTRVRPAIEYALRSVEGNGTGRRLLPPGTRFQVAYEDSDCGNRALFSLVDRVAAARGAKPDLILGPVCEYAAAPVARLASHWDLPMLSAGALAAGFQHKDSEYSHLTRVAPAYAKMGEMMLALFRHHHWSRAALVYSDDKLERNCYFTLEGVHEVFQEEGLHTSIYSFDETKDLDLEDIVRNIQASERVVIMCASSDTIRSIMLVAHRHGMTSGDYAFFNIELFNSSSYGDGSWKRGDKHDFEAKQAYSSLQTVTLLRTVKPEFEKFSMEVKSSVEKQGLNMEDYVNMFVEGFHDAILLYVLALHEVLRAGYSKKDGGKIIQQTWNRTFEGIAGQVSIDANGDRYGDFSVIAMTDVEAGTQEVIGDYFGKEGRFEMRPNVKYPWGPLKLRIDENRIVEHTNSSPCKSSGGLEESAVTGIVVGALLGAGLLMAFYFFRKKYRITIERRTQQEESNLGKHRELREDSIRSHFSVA
# T3: human NPRA on HEK293 cells bound to ANP (human, UniProt P01160 124-151)
# T3 construct: mature; Receptor-ligand complex on cells; also called HEK NPRA cells loaded with ANP; ANP-NPRA complex
# T3 sequence: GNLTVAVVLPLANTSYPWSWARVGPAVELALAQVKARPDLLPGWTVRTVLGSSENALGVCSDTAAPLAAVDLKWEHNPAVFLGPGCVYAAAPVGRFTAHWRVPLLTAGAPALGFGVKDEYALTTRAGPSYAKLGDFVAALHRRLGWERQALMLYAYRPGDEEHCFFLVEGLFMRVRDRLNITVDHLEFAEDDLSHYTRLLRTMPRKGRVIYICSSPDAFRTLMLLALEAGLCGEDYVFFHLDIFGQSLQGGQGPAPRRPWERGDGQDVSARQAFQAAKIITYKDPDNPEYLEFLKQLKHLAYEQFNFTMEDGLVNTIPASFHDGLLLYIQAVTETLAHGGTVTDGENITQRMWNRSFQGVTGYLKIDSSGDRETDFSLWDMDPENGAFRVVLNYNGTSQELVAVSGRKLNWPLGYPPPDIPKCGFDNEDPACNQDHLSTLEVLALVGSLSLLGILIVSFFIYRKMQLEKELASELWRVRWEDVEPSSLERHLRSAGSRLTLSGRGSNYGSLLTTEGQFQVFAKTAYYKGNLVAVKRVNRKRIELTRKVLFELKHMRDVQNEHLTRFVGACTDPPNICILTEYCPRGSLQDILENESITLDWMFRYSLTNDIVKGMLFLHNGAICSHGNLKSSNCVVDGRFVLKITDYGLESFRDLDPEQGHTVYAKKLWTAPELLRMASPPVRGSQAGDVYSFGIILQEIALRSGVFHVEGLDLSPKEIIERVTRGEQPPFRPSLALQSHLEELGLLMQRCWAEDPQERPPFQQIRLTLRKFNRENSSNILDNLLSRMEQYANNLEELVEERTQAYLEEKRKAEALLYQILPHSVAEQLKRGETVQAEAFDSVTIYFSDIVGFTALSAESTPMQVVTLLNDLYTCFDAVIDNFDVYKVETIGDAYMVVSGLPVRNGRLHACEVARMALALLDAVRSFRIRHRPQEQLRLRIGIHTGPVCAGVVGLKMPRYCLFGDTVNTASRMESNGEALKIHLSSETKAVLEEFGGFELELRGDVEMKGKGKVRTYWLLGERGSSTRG
# T3 sequence (peptide): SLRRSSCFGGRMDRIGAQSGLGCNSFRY
# T4: human NPRB on HEK293 cells, without added ligand (human, UniProt P20594 23-1047)
# T4 construct: whole, on cells; also called HEK NPRB cells; natriuretic peptide receptor B
# T4 sequence (looked up): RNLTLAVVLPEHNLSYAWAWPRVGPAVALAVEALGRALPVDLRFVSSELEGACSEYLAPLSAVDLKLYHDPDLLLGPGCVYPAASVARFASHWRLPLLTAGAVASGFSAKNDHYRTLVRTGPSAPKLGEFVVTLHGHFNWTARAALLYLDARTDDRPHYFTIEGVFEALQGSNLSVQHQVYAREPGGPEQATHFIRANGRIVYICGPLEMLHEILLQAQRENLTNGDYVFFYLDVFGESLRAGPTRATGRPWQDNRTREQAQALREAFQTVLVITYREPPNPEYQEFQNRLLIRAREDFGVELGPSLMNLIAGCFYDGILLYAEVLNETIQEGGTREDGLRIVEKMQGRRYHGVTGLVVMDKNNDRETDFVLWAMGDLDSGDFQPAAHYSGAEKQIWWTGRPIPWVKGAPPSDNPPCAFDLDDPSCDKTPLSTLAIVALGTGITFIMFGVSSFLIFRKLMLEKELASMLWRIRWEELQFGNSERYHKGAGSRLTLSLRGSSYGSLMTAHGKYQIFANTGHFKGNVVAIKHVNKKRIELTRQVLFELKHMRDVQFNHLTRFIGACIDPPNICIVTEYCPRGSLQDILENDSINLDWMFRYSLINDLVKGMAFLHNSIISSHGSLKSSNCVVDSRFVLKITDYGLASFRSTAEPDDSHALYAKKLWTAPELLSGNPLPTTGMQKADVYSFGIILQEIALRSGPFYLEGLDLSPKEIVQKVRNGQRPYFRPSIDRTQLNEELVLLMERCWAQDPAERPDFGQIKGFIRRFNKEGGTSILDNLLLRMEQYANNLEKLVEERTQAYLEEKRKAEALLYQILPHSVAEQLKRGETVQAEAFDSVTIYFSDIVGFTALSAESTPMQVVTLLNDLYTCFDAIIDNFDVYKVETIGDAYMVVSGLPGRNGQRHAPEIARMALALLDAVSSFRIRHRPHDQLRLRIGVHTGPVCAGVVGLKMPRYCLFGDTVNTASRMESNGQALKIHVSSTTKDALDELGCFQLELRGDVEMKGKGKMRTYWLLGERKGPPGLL
# T5: human NPRC on HEK293 cells in the presence of BNP (human, UniProt P17342 27-541; P16860 103-134)
# T5 construct: whole, on cells;mature; also called HEK NPRC cells + 100 nM BNP
# T5 sequence (looked up): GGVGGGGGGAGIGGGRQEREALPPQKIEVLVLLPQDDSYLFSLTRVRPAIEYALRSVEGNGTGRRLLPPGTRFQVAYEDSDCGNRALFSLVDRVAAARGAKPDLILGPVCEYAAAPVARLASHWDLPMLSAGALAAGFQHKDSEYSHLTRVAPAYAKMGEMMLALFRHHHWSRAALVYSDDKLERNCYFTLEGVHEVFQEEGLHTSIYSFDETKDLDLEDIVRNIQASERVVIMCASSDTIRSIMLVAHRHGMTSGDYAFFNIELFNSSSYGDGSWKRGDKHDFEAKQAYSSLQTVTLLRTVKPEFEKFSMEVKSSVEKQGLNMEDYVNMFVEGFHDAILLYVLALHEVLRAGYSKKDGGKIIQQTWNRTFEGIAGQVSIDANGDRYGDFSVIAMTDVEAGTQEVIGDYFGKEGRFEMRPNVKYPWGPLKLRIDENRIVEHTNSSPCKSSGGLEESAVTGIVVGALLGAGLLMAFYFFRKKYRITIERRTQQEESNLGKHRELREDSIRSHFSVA
# T5 sequence (peptide, looked up): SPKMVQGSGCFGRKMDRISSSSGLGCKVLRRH
# T6: human NPRC on HEK293 cells in the presence of ANP (human, UniProt P17342 27-541; P01160 124-151)
# T6 construct: whole, on cells;mature; also called HEK NPRC cells + 100 nM ANP
# T6 sequence (looked up): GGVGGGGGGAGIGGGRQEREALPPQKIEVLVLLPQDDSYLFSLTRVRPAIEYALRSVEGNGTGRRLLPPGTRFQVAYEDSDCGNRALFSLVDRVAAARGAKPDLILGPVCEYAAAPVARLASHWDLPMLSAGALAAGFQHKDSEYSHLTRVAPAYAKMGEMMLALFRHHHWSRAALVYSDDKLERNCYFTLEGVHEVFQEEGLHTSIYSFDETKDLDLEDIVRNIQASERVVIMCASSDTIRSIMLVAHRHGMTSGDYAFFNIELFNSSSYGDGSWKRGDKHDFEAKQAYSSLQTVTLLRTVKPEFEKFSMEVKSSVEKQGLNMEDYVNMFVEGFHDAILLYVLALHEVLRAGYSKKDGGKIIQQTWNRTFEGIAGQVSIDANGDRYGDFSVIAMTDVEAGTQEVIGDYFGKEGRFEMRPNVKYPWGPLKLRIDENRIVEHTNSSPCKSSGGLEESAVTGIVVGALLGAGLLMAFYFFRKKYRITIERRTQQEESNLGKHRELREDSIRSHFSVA
# T6 sequence (peptide, looked up): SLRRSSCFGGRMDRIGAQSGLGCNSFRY
# B1: 5504 IgG4_Pro (antibody, V domains shown)
# VH: QVQLQQSGPGLVKPSQTLSLTCAISGDSVSSRSASWSWIRQSPGRGLEWLGRIYYRSKWYNDYAVSVKSRITINPDTSKNQFSLQLNSVTPEDTAVYYCARMDVPSFRYFDVWGQGTLVTVSS
# VL: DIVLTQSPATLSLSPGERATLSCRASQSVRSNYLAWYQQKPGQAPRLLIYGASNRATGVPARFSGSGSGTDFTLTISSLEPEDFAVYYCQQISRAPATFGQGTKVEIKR
# notes: Human IgG4_Pro
# Key:
# [1] = molecular target: T1, human NPRA on HEK293 cells, without …; test: FACS, HEK NPRA cells without ligand
# [2] = molecular target: T2, human NPRC on HEK293 cells, without …; test: FACS, HEK NPRC cells without ligand
# Procedure: (§1) HEK NPRA cells are detached with Accutase (PAA Laboratories GmbH, Cat. No. L11-007, Austria), harvested by centrifugation (900 rpm, 4 minutes) and resuspended in FACS buffer (PBS/3% FCS/0.02% NaN3) to a final concentration of 10⁶ cells/ml. 100 μl of the cell suspension is transferred to each well of a 96 round bottom plate (TC Microwell 96U, Nunc). […] Cells are washed in 150 μl of FACS buffer, pelleted and resuspended in 50 μl of the solution containing the primary antibody comprising a BEL extract of Fabs, a diluted BEL extract or purified antibody diluted in FACS buffer and incubated on ice for 30 min. Cells are washed again in FACS buffer and resuspended in 50 μl of FACS buffer containing the secondary antibody (R-Phycoerythrin-conjugated Affipure F(ab′)₂ Fragment Goat Anti-Human IgG, Dianova) and incubated on ice for 45 min. Cells are washed twice with FACS buffer and resuspended in 200 μl of FACS buffer for analysis in the FACS Array (BD Biosciences).
# [3] = molecular target: T3, human NPRA on HEK293 cells bound to ANP; test: FACS, IgG4_Pro on HEK NPRA cells in the presence of 100 nM ANP
# Procedure: as §1
# [4] = molecular target: T3, human NPRA on HEK293 cells bound to ANP; test: cell-based or functional assay
# [5] = molecular target: T7, human NPRB on HEK293 cells in the presence of CNP (human, UniProt P20594 23-1047; P23582 105-126); test: FACS, HEK NPRB cells with 100 nM CNP
# T7 construct: whole, on cells;mature; also called HEK NPRB cells + 100 nM CNP
# T7 sequence (P23582 105-126 limits assumed, one chain of several): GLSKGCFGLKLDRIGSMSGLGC
# Procedure: as §1
# [6] = molecular target: T4, human NPRB on HEK293 cells, without …; test: FACS, HEK NPRB cells without ligand
# Procedure: as §1
# [7] = molecular target: T3, human NPRA on HEK293 cells bound to ANP; test: FACS, HEK NPRA cells with 100 nM ANP, IgG4_Pro format
# [8] = molecular target: T5, human NPRC on HEK293 cells in the …; test: FACS, HEK NPRC cells with 100 nM BNP
# Procedure: as §1
# [9] = molecular target: T6, human NPRC on HEK293 cells in the …; test: FACS, HEK NPRC cells with 100 nM ANP
# Procedure: as §1
# [10] = molecular target: T3, human NPRA on HEK293 cells bound to ANP; test: cell-based or functional assay; remark: listed apart in the source
binder,measurement,setting,value
B1,binding result,[1],no binding (tested: 20 nM)
same,binding result,[2],no binding (tested: 20 nM)
same,EC50,[3],0.56 nM
same,"cGMP EC50 (nM), titration of the antibody on HEK NPRA cells with 200 pM ANP",[4],1.2 nM
same,binding result,[5],no binding (tested: 20 nM)
same,binding result,[6],no binding (tested: 20 nM)
same,EC50 (read off the curve),[7],~0.5 nM
same,binding result,[8],no binding (tested: 20 nM)
same,binding result,[9],no binding (tested: 20 nM)
same,"fold increase in the potency of ANP (cGMP, HEK NPRA cells, 200 nM IgG4_Pro)",[10],≤ 10 fold
